Test results reported in publication PMC3045619 (Nucleic Acids Research, 2010).

Experiments:
χ K124A = χ K124A (E. coli, UniProt P28905 1-147, K124A); experiment: cross-linking
[1] = target: χ subunit of DNA polymerase III of E. coli, wild-type (E. coli, UniProt P28905 1-147); experiment: cross-linking

WMDFDDDIPF [SSB-Carb, peptide containing the last nine amino acids of EcoSSB]: binds (χ K124A); binds [1].
